Numbering of substitutions follows the chain as printed.
Key:
GIPR T116R (human) = biological target: T1, GIPR T116R (human) (UniProt P48546)
T1 sequence: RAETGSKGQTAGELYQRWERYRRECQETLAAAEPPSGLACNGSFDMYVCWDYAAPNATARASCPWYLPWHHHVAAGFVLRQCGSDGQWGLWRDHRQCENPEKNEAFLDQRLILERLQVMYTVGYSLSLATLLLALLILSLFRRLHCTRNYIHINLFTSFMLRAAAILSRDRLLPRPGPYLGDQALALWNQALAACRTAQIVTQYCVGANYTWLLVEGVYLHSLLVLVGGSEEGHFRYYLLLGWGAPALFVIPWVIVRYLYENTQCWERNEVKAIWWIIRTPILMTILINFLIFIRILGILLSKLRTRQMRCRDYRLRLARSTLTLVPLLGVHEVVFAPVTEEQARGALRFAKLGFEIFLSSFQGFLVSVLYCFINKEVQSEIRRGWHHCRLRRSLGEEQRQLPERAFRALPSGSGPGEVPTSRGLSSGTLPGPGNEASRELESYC

GIPR S382T (human) = biological target: T2, GIPR S382T (human) (UniProt P48546)
T2 sequence: T1 sequence with R95T, S361T

GIPR Y73H (human) = biological target: T3, GIPR Y73H (human) (UniProt P48546)
T3 sequence: T1 sequence with Y52H, R95T

GIPR E463Q (human) = biological target: T4, GIPR E463Q (human) (UniProt P48546)
T4 sequence: T1 sequence with R95T, E442Q

GIPR I378M (human) = biological target: T5, GIPR I378M (human) (UniProt P48546)
T5 sequence: T1 sequence with R95T, I357M

GIPR L304R (human) = biological target: T6, GIPR L304R (human) (UniProt P48546)
T6 sequence: T1 sequence with R95T, L283R

β-arrestin 2 recruitment (BRET) on stimulation with GIP(1-42): logEC50 (Arrestin) (log M (inferred)) (GIPR T116R (human)): -8.71
β-arrestin 2 recruitment (BRET) on stimulation with GIP(1-42): logEC50 (Arrestin) (log M (inferred)) (GIPR S382T (human)): -9.39
β-arrestin 2 recruitment (BRET) on stimulation with GIP(1-42): logEC50 (Arrestin) (log M (inferred)) (GIPR Y73H (human)): -9.11
β-arrestin 2 recruitment (BRET) on stimulation with GIP(1-42): logEC50 (Arrestin) (log M (inferred)) (GIPR E463Q (human)): -9.08
β-arrestin 2 recruitment (BRET) on stimulation with GIP(1-42): logEC50 (Arrestin) (log M (inferred)) (GIPR I378M (human)): -9.13
β-arrestin 2 recruitment (BRET) on stimulation with GIP(1-42): logEC50 (Arrestin) (log M (inferred)) (GIPR L304R (human)): -9.41
Substance: β-arrestin 2 (Rluc8-Arrestin-3-Sp1) (from UniProt P32121 1-409) (natural protein)

Reference: article PMC11272584 (Nature Metabolism, 2024)
